Assay [1] has as its target SARS-CoV-2 spike on live virus (Isolate USA-WA1/2020) (SARS-CoV-2) (UniProt P0DTC2). Briefly: cell-based or functional assay.
The target of assay [2] is SARS-CoV-2 B.1.351 live virus spike (SARS-CoV-2) (UniProt P0DTC2). The experiment in a line: cell-based or functional assay.
Assay [3] addresses SARS-CoV-2 2AA MA virus spike (SARS-CoV-2) (UniProt P0DTC2). The experiment in a line: cell-based or functional assay.
In assay [4] the target is SARS-CoV-2 B.1.1.7 live virus spike (SARS-CoV-2) (UniProt P0DTC2). Briefly: cell-based or functional assay.
Assay [5] has as its target SARS-CoV-2 Spike-2P stabilized S ectodomain trimer (SARS-CoV-2) (UniProt P0DTC2).
For assay [6] the target is unchanged. Briefly: ACE2 blocking, ELISA-based assay (Genscript).

Like-named read-outs stand apart in the source and are kept apart here.

A word on the IC50: it is the concentration that gives 50% inhibition. A high value points to a need for much substance. The term IC80 denotes the concentration needed for an effect of 80%.

In assay [1], DH1047 (antibody) registered an SARS-CoV-2 neutralization IC50 of 0.124 µg/mL, an SARS-CoV-2 neutralization IC80 of 0.666 µg/mL, an SARS-CoV-2 neutralization IC90 of 1.77 µg/mL and an SARS-CoV-2 neutralization Minimal Effective conc. of 1.1 µg/mL. In assay [2], this substance registered a live virus neutralization IC50 of 0.111 µg/mL. In assay [3], the live virus neutralization IC50 came to 0.397 µg/mL. This substance came in with a live virus neutralization IC50 in assay [4] of 0.081 µg/mL. In addition, in assay [5], the IC50 came out at 0.078 µg/mL and the IC80 is 0.567 µg/mL.
Take DH1042 (antibody): in assay [1], the Bioqual PRNT IC50 worked out at 0.156 µg/mL, the Bioqual PRNT IC90 was 0.625 µg/mL, the Duke RBL PRNT IC50 was found to be 0.073 µg/mL and the Duke RBL PRNT IC90 came out at 0.625 µg/mL. In assay [1], this substance registered an SARS-CoV-2 neutralization IC50 of 0.071 µg/mL, an SARS-CoV-2 neutralization IC80 of 0.269 µg/mL, an SARS-CoV-2 neutralization IC90 of 0.578 µg/mL and an SARS-CoV-2 neutralization Minimal Effective conc. of 0.28 µg/mL. In assay [5], this substance registered an IC50 below 0.2 µg/mL and a concentration for an effect of 80% (IC80) of 0.371 µg/mL. Also, the IC50 in assay [6] was below 0.2 µg/mL.
